Fewer inactive variants are shown than the library holds.
How the values were obtained:
[1] = test system: biotinyl-Phe-oxazolone; assay: self-aminoacylation, catalytic enhancement (BFO) (fold over background); higher = more active; k-Seq, kA / k0A0; sequences stand for … in GGGAAUGGAUCCACAUCUACGAAUUC…UUCACUGCAGACUUGACGAAGCUG
In short: (§1)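 Mutagenized RNA pools with a 21-nt variable region (0.43 μM) were reacted with each biotinyl-aminoacyl-oxazolone at 2–1250 μM for 90 minutes at room temperature, in 50 μL HEPES/NaCl/KCl/MgCl2/CaCl2 buffer containing 5% acetonitrile at pH 6.9–7.0. RNA captured on streptavidin was quantified by triplicate qPCR and by Illumina sequencing. The fraction reacted for each sequence was fit to a pseudo-first-order model with bootstrapping, and catalytic enhancement is the median kA divided by the uncatalyzed rate, taken as the low-activity peak of a bimodal Gaussian fit.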

[2] = test system: biotinyl-Ile-oxazolone; assay: self-aminoacylation, catalytic enhancement (BIO) (fold over background); higher = more active; k-Seq, kA / k0A0; sequences stand for … in GGGAAUGGAUCCACAUCUACGAAUUC…UUCACUGCAGACUUGACGAAGCUG
In short: as §1

[3] = test system: biotinyl-Met-oxazolone; assay: self-aminoacylation, catalytic enhancement (BMO) (fold over background); higher = more active; k-Seq, kA / k0A0; sequences stand for … in GGGAAUGGAUCCACAUCUACGAAUUC…UUCACUGCAGACUUGACGAAGCUG
In short: as §1

[4] = test system: biotinyl-Val-oxazolone; assay: self-aminoacylation, catalytic enhancement (BVO) (fold over background); higher = more active; k-Seq, kA / k0A0; sequences stand for … in GGGAAUGGAUCCACAUCUACGAAUUC…UUCACUGCAGACUUGACGAAGCUG
In short: as §1

[5] = test system: biotinyl-Leu-oxazolone; assay: self-aminoacylation, catalytic enhancement (BLO) (fold over background); higher = more active; k-Seq, kA / k0A0; sequences stand for … in GGGAAUGGAUCCACAUCUACGAAUUC…UUCACUGCAGACUUGACGAAGCUG
In short: as §1

[6] = test system: biotinyl-Trp-oxazolone; assay: self-aminoacylation, catalytic enhancement (BWO) (fold over background); higher = more active; k-Seq, kA / k0A0; sequences stand for … in GGGAAUGGAUCCACAUCUACGAAUUC…UUCACUGCAGACUUGACGAAGCUG
In short: as §1

Sequence	self-aminoacylation [1]	self-aminoacylation [2]	self-aminoacylation [3]	self-aminoacylation [4]	self-aminoacylation [5]	self-aminoacylation [6]
ACACACUUGAAGCAAUCGGUC [Fam1B.1 aminoacylation ribozyme variant]	1.25	1	0.88	1.23	0.919	1.17
ACACACUUUAAGCAAUCGGUC [Fam1B.1 aminoacylation ribozyme variant]	1.34	1.06	0.832	0.949	0.948	1.03
ACGUAUGCUAAUAGUCGCAAG [Fam3.1 aminoacylation ribozyme variant]	1.96	1.61	1.35	1.43	1.72	1.29
ACGUUCGCUAAUAGUCGCAAG [Fam3.1 aminoacylation ribozyme variant]	1.62	1.84	1.24	1.91	1.96	2.21
ACGUUUGCUAAUAGACGCAAG [Fam3.1 aminoacylation ribozyme variant]	0.853	1.3	0.935	1.12	0.849	1.11
ACGUUUGCUAAUAGUCGCAAU [Fam3.1 aminoacylation ribozyme variant]	2.06	1.66	1.45	1.33	1.51	1.53
ACGUUUGCUAAUAGUCGCACG [Fam3.1 aminoacylation ribozyme variant]	3.42	2.43	2.53	2.05	2.26	2.13
ACGUUUGCUAAUAGUCGUAAG [Fam3.1 aminoacylation ribozyme variant]	15.7	1.14	1.27	1.1	1.04	4.64
ACGUUUGCUACUAGUCGCAAG [Fam3.1 aminoacylation ribozyme variant]	2.4	1.76	2.16	1.47	1.7	1.31
ACGUUUGCUGAUAGUCGCAAG [Fam3.1 aminoacylation ribozyme variant]	4.7	1.52	1.12	1.35	1.57	1.69
ACGUUUUCUAAUAGUCGCAAG [Fam3.1 aminoacylation ribozyme variant]	2.79	1.75	1.59	1.53	1.67	1.55
ACUACACUGGUCAUCGAGUGA [Fam2.1 aminoacylation ribozyme variant]	13.7	3.3	4.45	3	4.81	5.78
ACUACCAUGGUCAUCGAGUGA [Fam2.1 aminoacylation ribozyme variant]	34.8	4.61	6.31	4.53	7.97	9.5
ACUACCCCGGUCAUCGAGUGA [Fam2.1 aminoacylation ribozyme variant]	30.8	3.29	5.95	2.87	5.9	5.9
ACUACCCUGGCCAUCGAGUGA [Fam2.1 aminoacylation ribozyme variant]	27.3	3.53	4.33	3.77	6.69	7.18
ACUACCCUGGUAAUCGAGUGA [Fam2.1 aminoacylation ribozyme variant]	43.4	3.32	7.36	3.16	7.43	9.29
ACUACCCUGGUCAUAGAGUGA [Fam2.1 aminoacylation ribozyme variant]	38.1	3.26	6.89	3.19	7.11	7.77
ACUACCCUGGUCAUCGAGUGC [Fam2.1 aminoacylation ribozyme variant]	10.1	2.18	5.55	2.44	5.6	4.17
ACUACCCUGGUCAUCGAGUGG [Fam2.1 aminoacylation ribozyme variant]	110	7	20.8	8.27	22.5	20.2
ACUACCCUGGUCAUCGAUUGA [Fam2.1 aminoacylation ribozyme variant]	1.59	1.01	1.05	1.02	1.16	1.16
ACUACCCUGGUUAUCGAGUGA [Fam2.1 aminoacylation ribozyme variant]	33.1	3.67	7.03	4.43	8.45	7.91
ACUAUCCUGGUCAUCGAGUGA [Fam2.1 aminoacylation ribozyme variant]	18.4	3.7	6.19	3.62	6.46	8.06
ACUCAACUAGGUCAUCGGGUG [Fam2.2 aminoacylation ribozyme variant]	48	5.56	5.62	4.88	6.97	5.38
ACUCACCUAGCUCAUCGGGUG [Fam2.2 aminoacylation ribozyme variant]	0.904	2.02	2.47	1.92	2.17	2.44
ACUCACCUAGGUCACCGGGUG [Fam2.2 aminoacylation ribozyme variant]	34.2	4.71	3.64	5.05	7.47	7.92
ACUCACCUAGGUCAUCGGCUG [Fam2.2 aminoacylation ribozyme variant]	7.96	2.1	2	3.01	1.31	2.35

Reference: the supplement of paper PMC9233669
